According to paper PMC6810650 (Cell, 2019):

Key:
GST-Ubx5 = target: T1, GST-Ubx5 (S. cerevisiae, UniProt Q06682 1-500); assay: pull-down
T1 sequence (looked up): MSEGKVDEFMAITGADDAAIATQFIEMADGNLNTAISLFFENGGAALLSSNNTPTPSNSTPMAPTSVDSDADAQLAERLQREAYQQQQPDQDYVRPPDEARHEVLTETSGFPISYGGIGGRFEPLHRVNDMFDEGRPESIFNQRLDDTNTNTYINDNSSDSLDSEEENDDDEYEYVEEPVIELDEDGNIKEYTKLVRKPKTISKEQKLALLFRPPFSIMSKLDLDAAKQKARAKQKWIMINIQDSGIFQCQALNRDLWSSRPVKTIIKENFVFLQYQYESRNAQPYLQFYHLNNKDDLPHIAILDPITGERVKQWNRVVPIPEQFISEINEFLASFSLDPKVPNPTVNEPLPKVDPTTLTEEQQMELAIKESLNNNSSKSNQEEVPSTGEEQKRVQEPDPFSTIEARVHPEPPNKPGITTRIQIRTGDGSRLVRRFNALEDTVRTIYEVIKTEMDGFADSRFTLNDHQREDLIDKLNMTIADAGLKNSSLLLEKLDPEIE

6His-PUX7 = target: T2, 6His-PUX7 (Arabidopsis thaliana, UniProt Q94JZ8 1-468); assay: ITC
T2 sequence (looked up): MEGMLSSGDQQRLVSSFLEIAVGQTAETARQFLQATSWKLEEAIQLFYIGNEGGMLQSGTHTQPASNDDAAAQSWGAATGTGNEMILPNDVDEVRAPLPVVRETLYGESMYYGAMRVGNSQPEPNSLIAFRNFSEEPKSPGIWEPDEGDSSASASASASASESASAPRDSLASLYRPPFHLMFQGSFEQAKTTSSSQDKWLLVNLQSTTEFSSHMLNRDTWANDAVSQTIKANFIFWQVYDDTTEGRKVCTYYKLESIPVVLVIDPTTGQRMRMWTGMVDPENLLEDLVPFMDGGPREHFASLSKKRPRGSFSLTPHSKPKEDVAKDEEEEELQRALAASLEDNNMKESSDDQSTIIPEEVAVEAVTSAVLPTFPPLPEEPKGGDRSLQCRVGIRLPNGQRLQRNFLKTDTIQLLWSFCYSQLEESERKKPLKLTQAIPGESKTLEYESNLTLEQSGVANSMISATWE

6His-PUX8 = target: T3, 6His-PUX8 (Arabidopsis thaliana, UniProt F4JPR7 1-564); assay: ITC
T3 sequence (looked up): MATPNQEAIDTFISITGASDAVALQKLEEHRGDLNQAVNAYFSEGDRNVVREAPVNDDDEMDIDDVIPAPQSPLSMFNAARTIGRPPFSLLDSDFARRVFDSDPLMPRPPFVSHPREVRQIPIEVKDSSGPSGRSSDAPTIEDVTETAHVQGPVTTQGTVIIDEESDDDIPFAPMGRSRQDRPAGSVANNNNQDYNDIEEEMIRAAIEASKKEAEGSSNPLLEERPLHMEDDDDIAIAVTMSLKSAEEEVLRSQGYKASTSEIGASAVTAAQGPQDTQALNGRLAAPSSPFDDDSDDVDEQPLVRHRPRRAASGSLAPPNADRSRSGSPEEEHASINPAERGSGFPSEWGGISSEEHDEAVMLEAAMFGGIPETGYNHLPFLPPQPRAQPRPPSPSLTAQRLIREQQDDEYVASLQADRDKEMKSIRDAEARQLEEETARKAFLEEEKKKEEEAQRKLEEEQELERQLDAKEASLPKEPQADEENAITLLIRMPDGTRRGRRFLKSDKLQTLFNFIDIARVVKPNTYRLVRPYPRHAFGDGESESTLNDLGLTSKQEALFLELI

6His-PUX9 = target: T4, 6His-PUX9 (Arabidopsis thaliana, UniProt Q4V3D3 1-469); assay: ITC
T4 sequence (looked up): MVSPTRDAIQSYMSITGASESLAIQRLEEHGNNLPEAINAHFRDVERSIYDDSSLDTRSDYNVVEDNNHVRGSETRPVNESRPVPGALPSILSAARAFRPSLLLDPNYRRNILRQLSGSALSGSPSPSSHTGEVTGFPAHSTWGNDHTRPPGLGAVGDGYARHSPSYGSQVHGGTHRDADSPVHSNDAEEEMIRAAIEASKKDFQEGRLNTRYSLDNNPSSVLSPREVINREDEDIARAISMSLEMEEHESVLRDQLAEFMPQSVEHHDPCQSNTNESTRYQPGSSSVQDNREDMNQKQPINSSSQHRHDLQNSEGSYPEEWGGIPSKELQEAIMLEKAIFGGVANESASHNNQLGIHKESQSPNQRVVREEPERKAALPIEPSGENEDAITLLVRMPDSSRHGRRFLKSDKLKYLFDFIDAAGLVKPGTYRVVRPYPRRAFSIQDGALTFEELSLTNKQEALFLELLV

6His-PUX13 = target: T5, 6His-PUX13 (Arabidopsis thaliana, UniProt Q9C5G7 1-525); assay: ITC
T5 sequence (looked up): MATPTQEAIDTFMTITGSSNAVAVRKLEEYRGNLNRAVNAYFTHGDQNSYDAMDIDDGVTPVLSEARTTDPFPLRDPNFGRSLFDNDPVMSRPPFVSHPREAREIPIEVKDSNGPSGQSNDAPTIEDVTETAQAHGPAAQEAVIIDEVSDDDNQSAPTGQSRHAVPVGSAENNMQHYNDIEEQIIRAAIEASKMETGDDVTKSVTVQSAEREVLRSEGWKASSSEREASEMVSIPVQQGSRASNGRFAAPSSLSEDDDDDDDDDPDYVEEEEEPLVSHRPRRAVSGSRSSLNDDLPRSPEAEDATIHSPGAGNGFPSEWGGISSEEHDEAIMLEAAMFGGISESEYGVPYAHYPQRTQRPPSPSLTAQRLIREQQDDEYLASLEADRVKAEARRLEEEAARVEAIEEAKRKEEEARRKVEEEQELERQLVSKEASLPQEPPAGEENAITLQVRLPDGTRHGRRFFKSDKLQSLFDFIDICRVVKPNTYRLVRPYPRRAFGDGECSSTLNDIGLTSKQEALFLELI

[1] = target: T6, GST-RPN10 (amino acids 201 to 386) (Arabidopsis thaliana, UniProt P55034 201-386); assay: pull-down
T6 sequence (looked up): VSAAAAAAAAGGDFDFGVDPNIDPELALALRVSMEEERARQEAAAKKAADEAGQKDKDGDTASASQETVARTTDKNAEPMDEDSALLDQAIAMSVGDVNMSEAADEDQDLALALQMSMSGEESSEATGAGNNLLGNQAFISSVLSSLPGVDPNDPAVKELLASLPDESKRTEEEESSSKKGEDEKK

HA-DSK2a = target: T7, HA-DSK2a (Arabidopsis thaliana, UniProt Q9SII9 1-538); assay: pull-down
T7 sequence (looked up): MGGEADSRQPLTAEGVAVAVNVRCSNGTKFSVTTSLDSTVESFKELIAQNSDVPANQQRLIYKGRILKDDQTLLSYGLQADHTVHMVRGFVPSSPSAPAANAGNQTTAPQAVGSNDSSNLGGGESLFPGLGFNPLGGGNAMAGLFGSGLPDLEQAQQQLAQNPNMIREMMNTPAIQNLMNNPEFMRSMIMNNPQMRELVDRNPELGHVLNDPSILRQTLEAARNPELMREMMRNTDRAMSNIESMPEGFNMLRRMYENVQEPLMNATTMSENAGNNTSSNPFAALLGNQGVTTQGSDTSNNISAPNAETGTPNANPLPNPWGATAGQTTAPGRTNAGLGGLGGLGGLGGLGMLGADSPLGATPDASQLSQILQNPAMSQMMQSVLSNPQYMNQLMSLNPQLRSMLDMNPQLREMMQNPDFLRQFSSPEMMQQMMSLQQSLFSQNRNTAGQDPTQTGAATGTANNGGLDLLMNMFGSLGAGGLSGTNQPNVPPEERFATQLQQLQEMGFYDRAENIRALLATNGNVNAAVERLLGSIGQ

[2] = target: T8, Arabidopsis DSK2a (pull-down of Figure S1E) (Arabidopsis thaliana, UniProt Q9SII9 1-538); assay: pull-down
T8 sequence (looked up): T7 sequence (looked up)

GST-PUX7 = target: T9, GST-PUX7 (Arabidopsis thaliana, UniProt Q94JZ8 1-468); assay: pull-down
T9 sequence (looked up): T2 sequence (looked up)

GST-PUX8 = target: T10, GST-PUX8 (Arabidopsis thaliana, UniProt F4JPR7 1-564); assay: pull-down
T10 sequence (looked up): T3 sequence (looked up)

GST-PUX9 = target: T11, GST-PUX9 (Arabidopsis thaliana, UniProt Q4V3D3 1-469); assay: pull-down
T11 sequence (looked up): T4 sequence (looked up)

GST-PUX13 = target: T12, GST-PUX13 (Arabidopsis thaliana, UniProt Q9C5G7 1-525); assay: pull-down
T12 sequence (looked up): T5 sequence (looked up)

Measured: binding result

B1: 6His-Atg8 (yeast) (natural protein, S. cerevisiae, UniProt P38182 1-116, looked up)
chain: MKSTFKSEYPFEKRKAESERIADRFKNRIPVICEKAEKSDIPEIDKRKYLVPADLTVGQFVYVIRKRIMLPPEKAIFIFVNDTLPPTAALMSAIYQEHKDKDGFLYVTYSGENTFG
binds: GST-Ubx5

B2: 6His-ATG8e (natural protein, Arabidopsis thaliana, UniProt Q8S926 1-118, looked up)
chain: MNKGSIFKMDNDFEKRKAEAGRIREKYPDRIPVIVEKAEKSEVPNIDKKKYLVPSDLTVGQFVYVIRKRIKLSAEKAIFIFVDNVLPPTGELMSSVYEDKKDEDGFLYITYSGENTFG
not listed: GST-Ubx5
binds: all other assays above
